In patent publication US20220119507A1 (OHEALTH BIOPHARMACEUTICAL SUZHOU, published 2022):

Experiments:
[1] = target: PTX3 recombinant protein (undenatured amino acid sequence listed as SEQ ID NO:14) (human, UniProt P26022 19-381); test: ELISA, PTX3 (SEQ ID NO:14) coated at 10 ug/mL, antibody 0.01 to 1000 ng/mL (FIG. 2)
Method: Firstly, 10 μg/mL of PTX3 recombinant protein (representing a undenatured amino acid sequence listed as SEQ ID NO:14, dissolved in pH 7.2 PBS) was coated onto each well of a 96-well cell culture plate (Product No. 9018, Corning Costar), and reacted at 4° C. overnight. Next, the blocking solution (containing 3% BSA in PBS) was added into wells, and blocked for 1 hour under room temperature (i.e. 4° C. to 40° C.). After removing the blocking solution, each well was rinsed with PBS, and then reacted with a primary antibody for 1 hour under room temperature (i.e. 4° C. to 40° C.), in which the primary antibody was PTX3 mAb of EXAMPLE 1 serially diluted in a concentration range of 0.01 ng/mL to 1000 ng/mL. And then, each well was rinsed several times with PBST (i.e. PBS with Tween 20) for removing unconjugated PTX3 mAb, and reacted with secondary antibody under room temperature (i.e. 4° C. to 40° C.), in which the secondary antibody was anti-mouse IgG-HRP. Afterward, TMB was added into each well for reaction over a time period, and then added with 0.1 M of H₂SO₄ solution for 10 minutes to stop the reaction. Subsequently, the absorbance at 450 nm of each well was measured by commercially available ELISA reader, and the results were shown in FIG. 2. Each value was obtained in quadruplicate. […]

[2] = target: T1, fragment of PTX3 recombinant protein listed as SEQ ID NO:4 (human); test: ELISA on coated fragments SEQ ID NOs:1 to 10 (FIG. 4)
T1 peptide: ACIWVKATD

[3] = target: T2, fragment of PTX3 recombinant protein listed as SEQ ID NO:5 (human); test: as above
T2 peptide: WVKATDVLN

[4] = target: T3, fragment of PTX3 recombinant protein listed as SEQ ID NO:3 (human); test: as above
T3 peptide: SFSACIWVK

[5] = target: T4, fragment of PTX3 recombinant protein listed as SEQ ID NO:10 (human); test: hybridoma screening
T4 peptide: YGTKRNPYEI

[6] = target: T5, fragment of PTX3 recombinant protein listed as SEQ ID NO:7 (human); test: hybridoma screening
T5 peptide: VLNKTILFS

[7] = target: T6, fragment of PTX3 recombinant protein listed as SEQ ID NO:9 (human); test: hybridoma screening
T6 peptide: LFSYGTKRN

[8] = target: T7, fragment of PTX3 recombinant protein listed as SEQ ID NO:6 (human); test: hybridoma screening
T7 peptide: ATDVLNKTI

[9] = target: T8, amino acid sequence listed as SEQ ID NO:11 (203th to 217th amino acid residues of PTX3 recombinant protein) (human); test: hybridoma screening
T8 peptide: RLESFSACIWVKATD

[10] = target: T9, fragment of PTX3 recombinant protein listed as SEQ ID NO:2 (human); test: hybridoma screening
T9 peptide: RLESFSACI

[11] = target: T10, RI37, fragment of PTX3 recombinant protein listed as SEQ ID NO:12 (200th to 236th amino acid residues) (human); test: hybridoma screening
T10 peptide: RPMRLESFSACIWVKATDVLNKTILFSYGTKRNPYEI

[12] = target: T11, fragment of PTX3 recombinant protein listed as SEQ ID NO:8 (human); test: hybridoma screening
T11 peptide: KTILFSYGT

[13] = target: T12, fragment of PTX3 recombinant protein listed as SEQ ID NO:1 (human); test: hybridoma screening
T12 peptide: RPMRLESFS

PTX3 recombinant protein (undenatured amino acid sequence listed as SEQ ID NO:14), sequence (P26022 19-381 limits assumed): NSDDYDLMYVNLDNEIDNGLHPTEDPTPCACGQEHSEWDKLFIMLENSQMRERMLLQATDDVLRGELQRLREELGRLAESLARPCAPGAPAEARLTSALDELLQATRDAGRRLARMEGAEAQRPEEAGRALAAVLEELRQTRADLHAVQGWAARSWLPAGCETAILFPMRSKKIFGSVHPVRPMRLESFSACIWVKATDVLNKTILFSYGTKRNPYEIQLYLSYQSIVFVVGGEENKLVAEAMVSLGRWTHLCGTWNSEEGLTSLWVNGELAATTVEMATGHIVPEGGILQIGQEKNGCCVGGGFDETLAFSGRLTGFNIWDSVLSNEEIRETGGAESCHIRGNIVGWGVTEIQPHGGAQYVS

Kd [1]: 0.085 nM
binding result [2]: binds
binding result [3]: binds
binding result [4]: binds
binding result [5]: binds
binding result [6]: binds
binding result [7]: binds
binding result [8]: binds
binding result [9]: binds
binding result [10]: binds
binding result [11]: binds
binding result [12]: binds
binding result [13]: binds
B1: PTX3 monoclonal antibody of EXAMPLE 1 (antibody, V domains shown)
VH: EVQLQQSGAELVKPGASVKLSCTASDFNIKHTYLHWVLQRPEQGLEWIGRIDPANGDTKYDPKFQGKATITADTSSNTAYLHLSSLTSEDTAVYYCARVTTVVGFDYWGQGTTLTVSS
VL: QIVLTQSPAIMSTSLGERVTMTCTASSSVISTYLNWYQQKPGSSPKLWIYSTSNLASGVPARFSGSGSGTSYSLTISSMEAEDAATYFCHQFQRSPLTFGAGTKLELKR
notes: also called PTX3 mAb
